The text below walks through data of US20260345809 (published 2026).

For orientation: EC50 means the midpoint of the concentration-response curve.

In test [1] the target is T1, GPC3 (human, UniProt P51654). The experiment in a line: FACS, GPC3-CHO-K1 cells.
For test [2], the target named is T1, GPC3. The experiment in a line: FACS, HepG2 cells. A general note: Flow cytometry measures light scatter and fluorescence of single cells or particles in a stream.
The target of test [3] is T1, GPC3. The experiment in a line: FACS, Huh-7 cells.
Test [4] has as its target T1, GPC3. The test can be described thus: FACS, HepG2 cells. This is another data set of the same source.

B1: Y035 (antibody, V domains shown)
VH: EVQLVQSGAEVKKPGASVKVSCKASGYTHSDYEMHWVRQAPGQGLEWMGAIHPGSGDTAYNQRFKGRVTITADKSTSTAYMELSSLRSEDTAVYYCARFYSYAYWGQGTLVTVSA
VL: DIVMTQTPLSLPVTPGEPASISCRSSQSLVHSNGNTYLQWYLQWYLQKPGQSPQLLIYKVSNRFSGVPDRFSGSGSGTDFTLKISRVEAEDVGVYYCSQSIYVPYTFGQGTKLEIKR
For the molecule B1, the EC50 was 1.46 nM with GPC3 [1], 1.25 nM with GPC3 [2] and 1.18 nM in the test with GPC3 [3].

B2: GC33 (antibody, V domains shown)
VH: QVQLVQSGAEVKKPGASVKVSCKASGYTFTDYEMHWVRQAPGQGLEWMGALDPKTGDTAYSQKFKGRVTLTADKSTSTAYMELSSLTSEDTAVYYCTRFYSYTYWGQGTLVTVSS
VL: DVVMTQSPLSLPVTPGEPASISCRSSQSLVHSNRNTYLHWYLQKPGQSPQLLIYKVSNRFSGVPDRFSGSGSGTDFTLKISRVEAEDVGVYYCSQNTHVPPTFGQGTKLEIKR
For the molecule B2, the EC50 turned out to be 0.956 nM in the test with GPC3 [1], 0.269 µg/mL with GPC3 [4], 0.745 nM with GPC3 [2] and 0.953 nM with GPC3 [3].

B3: GC33-L4-D4 (antibody, V domains shown)
VH: B2 VH
VL: B2 VL
modifications: ADC, MC-MMAF conjugate of GC33
In turn, B3 showed a concentration giving a half-maximal response (EC50) in the test with GPC3 [4] of 0.112 µg/mL.

B4: GC33-ZLA (antibody, V domains shown)
VH: B2 VH
VL: B2 VL
modifications: ADC, ZLA conjugate of GC33
In the test with GPC3 [4], B4 showed an EC50 of 0.143 µg/mL.
